{
  "source": "patent US10548950B2",
  "about": "“Irisin-related cancer treatments” (STC.UNM, priority 2014, dated 2020)",
  "molecules": {"B1": {"name": "IM: human recombinant modified and active (glycosylated) irisin from PlexBio (protein, UniProt Q8NAU1 1-191, looked up)", "Irisin": "MQAARGGAGRPERPGRPGRGPERERERPPGAGAASPCAAPGLPAGGATIHPGSPSAWPPRARAALRLWLGCVCFALVQADSPSAPVNVTVRHLKANSAVVSWDVLEDEVVIGFAISQQKKDVRMLRFIQEVNTTTRSCALWDLEEDTEYIVHVQAISIQGQSPASEPVLFKTPREAEKMASKNKDEVTMKE", "modifications": "Irisin glycosylated"}, "B2": {"name": "irisin: 112 aa peptide cleaved from FNDC5; term covers both non-modified (INM) and glycosylated (IM) irisin (protein)", "chain": "DSPSAPVNVTVRHLKANSAVVSWDVLEDEVVIGFAISQQKKDVRMLRFIQEVNTTTRSCALWDLEEDTEGIVHVQAISIQGQSPASEPVLFKTPREAEKMASKNKDEVTMKE", "modifications": "non-modified irisin", "notes": "112 aa peptide cleaved from FNDC5; term covers both non-modified (INM) and glycosylated (IM) irisin"}},
  "key": {"[1]": {"system": "caspase-3/7 activity in MDA-MB-231 cells", "experiment": "Caspase-3/7 activity (kinetic apoptosis reagent, Incucyte ZOOM)", "type": "cell-based, Human", "settings": "MDA-MB-231, various concentrations, 24 hours", "excerpt": "Cells were co-treated as previously described (N=12) with a kinetic caspase-3/7 apoptosis reagent from Essen Bioscience (Ann Arbor, Mich.). Caspase-3/7 activity was indicated by mean green fluorescence measured by the Incucyte ZOOM as described above."}, "MDA-MB-231 cells [2]": {"system": "MDA-MB-231 cells", "experiment": "Doxorubicin sensitivity: cell viability (WST-1) with Dox with or without irisin", "type": "cell-based, Human", "settings": "24 hours", "experimental": "Cells were seeded overnight at a density of 5,000 cells/well, treated with or without varying concentrations of IM or INM (from 0.625 nM to 20 nM) (N=12). Cells were then incubated for 1 hour in medium containing 10% WST-1 cell proliferation reagent from Roche (Indianapolis, Ind.) and fluorescence was measured using a Wallac Victor3V 1420 Multilabel Counter from PerkinElmer (Waltham, Mass.). These methods were repeated with varying concentrations (from 0.156 μM to 10 μM) of the antineoplastic Doxorubicin (Dox) from Sigma (St. Louis, Mo.) dissolved in DMSO (using 0.1% for all treatments including control) with 2 nM IM or INM for 24 hours (N=8). At 24 hours, Dox uptake was measured using phase-contrast and fluorescence (N=24). Treatment concentrations and duration were determined empirically through pilot experiments and from previously published observations for Dox.^20"}, "RFP MDA-MB-231 cells": {"system": "RFP MDA-MB-231 cells", "experiment": "Cell proliferation by automated red object counting (Incucyte ZOOM)", "type": "cell-based, Human", "settings": "2 nM, 24 hours, compared with control", "experimental": "(§1) Human non-malignant breast epithelial cells (MCF-10a), malignant breast epithelial cells (MCF-7), and malignant aggressive breast epithelial cells (MDA-MB-231) were purchased from American Type Culture Collection (Manassas, Va.). Cells were maintained under standard conditions (37° C. in a 5% CO2) using growth media as described in Supporting Information Table 1. Cells were treated with either human recombinant non-modified irisin (INM) from Cayman Chemical (Ann Arbor, Mich.) or human recombinant modified and active (glycosylated) irisin (IM) from PlexBio (San Francisco, Calif.) at concentrations ranging from 0.625 nM to 20 nM dissolved in culture media for 24 hours. Concentrations of irisin were determined empirically through pilot experiments based on and previously published observations.^9 MDA-MB-231 cells were labeled with red fluorescent protein (RFP) by lentiviral-transfection using CytoLight Red vector from Essen Bioscience (Ann. Arbor, Mich.). […]\nRFP MDA-MB-231 cells were seeded overnight in 96-well plates at a density of 5,000 cells/well and treated with or without irisin at 2 nM (IM or INM) (N=64). Cell proliferation was measured by automated red object counting optimized for MDA-MB-231 cells using the Incucyte ZOOM live content imaging from Essen Bioscience (Ann Arbor, Mich.), measured every hour for 24 hours. […]"}, "[3]": {"system": "NFκB activity in MDA-MB-231 cells", "experiment": "NFκB-GFP reporter system", "type": "cell-based, Human", "settings": "MDA-MB-231, 24 hours", "experimental": "Cells were transfected with a NFκB GFP-linked reporter system from Qiagen (Valencia, Calif.) before treatment with IM, INM, or TNF-α from R and D Systems (Minneapolis, Minn.) at various concentrations for 24 hours (N=12). NFκB activity was indicated by mean fluorescence measured by the Incucyte ZOOM as described above."}, "MDA-MB-231 cells [4]": {"system": "MDA-MB-231 cells", "experiment": "Cell viability (WST-1) after irisin treatment for 24 hours", "type": "cell-based, Human", "settings": "0.625 nM to 20 nM, compared with control", "experimental": "as §1\n(§2) Cells were seeded overnight at a density of 5,000 cells/well, treated with or without varying concentrations of IM or INM (from 0.625 nM to 20 nM) (N=12). Cells were then incubated for 1 hour in medium containing 10% WST-1 cell proliferation reagent from Roche (Indianapolis, Ind.) and fluorescence was measured using a Wallac Victor3V 1420 Multilabel Counter from PerkinElmer (Waltham, Mass.). […]"}, "MCF-10a cells": {"system": "MCF-10a cells", "experiment": "Cell viability (WST-1) after irisin treatment for 24 hours", "type": "cell-based, Human", "settings": "0.625 nM to 20 nM, 24 hours post treatment", "experimental": "as §1, §2"}, "[5]": {"system": "malignant and non-malignant breast epithelial cell", "experiment": "Cell metabolism (data not shown)", "type": "cell-based, Human", "settings": "malignant and non-malignant cells"}, "[6]": {"system": "obesity-related cancer cells", "settings": "Moon et al., MTT endpoint assay; cited from earlier work"}},
  "data": [
    {"molecule": "TNF-α [reference compound]", "values": [
      {"measurement": "Caspase-3/7 activity", "setting": "[1]", "result": "significantly elevated"}
    ]},
    {"molecule": "COc1cccc2c1C(=O)c1c(O)c3c(c(O)c1C2=O)C[C@@](O)(C(=O)CO)C[C@@H]3O[C@H]1C[C@H](N)[C@H](O)[C@H](C)O1", "note": "[Dox, Doxorubicin, reference compound]", "values": [
      {"measurement": "Cell viability, Dox treatment alone", "setting": "MDA-MB-231 cells [2]; MDA-MB-231, Dox 100 nM or 1.0 μM", "result": "not"},
      {"measurement": "Cell viability, Dox treatment alone", "setting": "MDA-MB-231 cells [2]; MDA-MB-231, Dox 10 μM", "result": "reduced cell viability"}
    ]},
    {"molecule": "B1", "values": [
      {"measurement": "Cell proliferation of MDA-MB-231 cells", "setting": "RFP MDA-MB-231 cells", "result": "did not alter cell proliferation"},
      {"measurement": "NFκB activity", "setting": "[3]", "result": "did not alter NFκB activity"},
      {"measurement": "Enhancement of Dox killing by irisin", "setting": "MDA-MB-231 cells [2]; MDA-MB-231, 2 nM irisin with Dox 100 nM to 10 μM", "result": "significantly enhanced Dox killing at 1.0 μM"},
      {"measurement": "Caspase-3/7 activity", "setting": "[1]", "result": "failed to activate caspase-3/7 activity"},
      {"measurement": "Cell viability of MDA-MB-231 cells", "setting": "MDA-MB-231 cells [4]", "result": "unaffected"},
      {"measurement": "Cell viability of MCF-10a cells", "setting": "MCF-10a cells", "result": "decreased at the highest tested dose"}
    ]},
    {"molecule": "B2", "values": [
      {"measurement": "Breast epithelial cell metabolism", "setting": "[5]", "result": "not significantly altered"},
      {"measurement": "Cell proliferation in obesity-related cancer cells", "setting": "[6]", "result": "no significant affect on cell proliferation"}
    ]}
  ]
}
